IntAct's records for PubMed 21236255

B1: Zinc-dependent sulfurtransferase SufU (Bacillus subtilis), O32163 (parent)
chain: MSFNANLDTLYRQVIMDHYKNPRNKGVLNDSIVVDMNNPTCGDRIRLTMKLDGDIVEDAKFEGEGCSISMASASMMTQAIKGKDIETALSMSKIFSDMMQGKEYDDSIDLGDIEALQGVSKFPARIKCATLSWKALEKGVAKEEGGN

Variants of: B1
Conditions: with sufs_bacsu sufS

effect of a mutation on the interaction	Variant
disrupting interaction	C41A

Variants of: B1
Conditions: with sufs_bacsu sufS
Remark: another data set of the same source

effect of a mutation on the interaction	Variant
increasing interaction	C41A

Variants of: B1
Conditions: with sufs_bacsu sufS
Remark: another data set of the same source

effect of a mutation on the interaction	Variant
disrupting interaction	C66A

Variants of: B1
Conditions: with sufs_bacsu sufS
Remark: another data set of the same source

effect of a mutation on the interaction	Variant
disrupting interaction	C128A
